Measurements taken from patent US20240209100A1 (DIAGONAL THERAPEUTICS, published 2024).
Read-outs that look alike come from different tables or passages of the source.

T1: IL-18 receptor (IL-18Rα/IL-18Rβ) overexpressed on HEK-Blue IL-18 cells (Homo sapiens (Human), UniProt Q13478 19-541; O95256 20-599)
T1 sequence 1: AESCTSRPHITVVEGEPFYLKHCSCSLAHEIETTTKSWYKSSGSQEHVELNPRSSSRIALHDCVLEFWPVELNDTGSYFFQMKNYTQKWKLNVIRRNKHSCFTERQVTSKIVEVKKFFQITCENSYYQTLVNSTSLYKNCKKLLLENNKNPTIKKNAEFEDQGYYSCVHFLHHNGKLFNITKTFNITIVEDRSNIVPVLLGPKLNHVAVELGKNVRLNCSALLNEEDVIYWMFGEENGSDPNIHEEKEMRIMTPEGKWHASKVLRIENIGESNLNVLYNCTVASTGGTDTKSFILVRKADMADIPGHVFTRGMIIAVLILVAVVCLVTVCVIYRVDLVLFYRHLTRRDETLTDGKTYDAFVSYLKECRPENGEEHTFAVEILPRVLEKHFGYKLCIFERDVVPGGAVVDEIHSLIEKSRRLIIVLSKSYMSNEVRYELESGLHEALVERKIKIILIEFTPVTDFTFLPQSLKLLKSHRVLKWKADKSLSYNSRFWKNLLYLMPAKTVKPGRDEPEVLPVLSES
T1 sequence 2: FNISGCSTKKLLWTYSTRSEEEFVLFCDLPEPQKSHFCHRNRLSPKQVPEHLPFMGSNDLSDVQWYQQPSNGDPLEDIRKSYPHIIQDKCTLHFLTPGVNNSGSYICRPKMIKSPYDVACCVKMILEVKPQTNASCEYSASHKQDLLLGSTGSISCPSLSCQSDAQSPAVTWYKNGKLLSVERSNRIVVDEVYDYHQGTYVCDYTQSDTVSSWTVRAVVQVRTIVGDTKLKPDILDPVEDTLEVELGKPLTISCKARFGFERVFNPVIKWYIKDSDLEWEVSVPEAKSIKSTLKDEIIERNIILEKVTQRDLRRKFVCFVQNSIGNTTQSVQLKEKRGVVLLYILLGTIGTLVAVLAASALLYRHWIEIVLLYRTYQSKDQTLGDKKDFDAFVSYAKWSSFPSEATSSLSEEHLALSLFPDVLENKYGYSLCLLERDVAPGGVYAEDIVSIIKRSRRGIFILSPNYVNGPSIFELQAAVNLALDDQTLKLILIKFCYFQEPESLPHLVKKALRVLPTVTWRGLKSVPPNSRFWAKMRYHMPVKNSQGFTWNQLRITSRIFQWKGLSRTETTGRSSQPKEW


How the values were obtained:
Test in all cases: cell-based or functional assay
[1] = target: T1, IL-18 receptor (IL-18Rα/IL-18Rβ) …
[2] = target: T1, IL-18 receptor (IL-18Rα/IL-18Rβ) …; remark: listed apart in the source
[3] = target: T1, IL-18 receptor (IL-18Rα/IL-18Rβ) …; remark: listed apart in the source
[4] = target: T1, IL-18 receptor (IL-18Rα/IL-18Rβ) …; remark: listed apart in the source

| HEK-Blue IL-18: Abs 405 [1] | HEK-Blue IL-18: Fold over Background [1] | HEK-Blue IL-18: Abs405 (Emax) [2] | HEK-Blue IL-18: EC50 [2] | HEK-Blue IL-18: Fold over Background [3] | HEK-Blue IL-18: Abs 405 at 100 nM [4] | HEK-Blue IL-18: Fold over Background [4] | Binder |
| --- | --- | --- | --- | --- | --- | --- | --- |
| 0.19 Abs | 1.6 fold |  |  |  |  |  | DGL161 (bispecific antibody) heavy 1: EVQLVESGGGLVQPGGSLRLSCAASGFFLDDYVLGWFRQAPGKPREGVSCISSRGRYLNYAETVKGRFTISRSNAKNTVYLQMNNLEPEDTAVYYCAAVRRVSEVCKLAEDDFASWGQGTQVTVSSDKGPSVFPLAPEPKSSQVQLVESGGGLVQAGDSLRLSCVASERTFSSYTMGWFRQAPGKEREFTAALSWWNGGISTAYADSVKGRFTISRDNAKNTVYLQMNSLKTEDTALYYCAAARDRMPRADEYDYWGQGTQVTVSSDKTHTCPPCPAPEAAGGPSVFLFPPKPKDTLMISRTPEVTCVVVDVSHEDPEVKFNWYVDGVEVHNAKTKPREEQYNSTYRVVSVLTVLHQDWLNGKEYKCKVSNKALPAPIEKTISKAKGQPREPQVCTLPPSRDELTKNQVSLSCAVKGFYPSDIAVEWESNGQPENNYKTTPPVLDSDGSFFLVSKLTVDKSRWQQGNVFSCSVMHEALHNHYTQKSLSLSPG heavy 2: not shown |
|  |  | 1.38 Abs | 8.3 pM | 9.2 fold | 0.9 Abs | 4.1 fold | DGL093 (bispecific antibody) heavy 1: QVQLVESGGGLVQAGGSLRLSCAASGRTFSKHAMGWFRQAPGKEREFVAAIDWSGGSTYYADSVKGRFTISRDNAKNTVYLQMDSLKPEDTAVYYCAADSYTDYAQLWLPELESEYDYWGQGTQVTVSSDKTHTCPPCPAPEAAGGPSVFLFPPKPKDTLMISRTPEVTCVVVDVSHEDPEVKFNWYVDGVEVHNAKTKPREEQYNSTYRVVSVLTVLHQDWLNGKEYKCKVSNKALPAPIEKTISKAKGQPREPQVCTLPPSRDELTKNQVSLSCAVKGFYPSDIAVEWESNGQPENNYKTTPPVLDSDGSFFLVSKLTVDKSRWQQGNVFSCSVMHEALHNHYTQKSLSLSPG heavy 2: not shown |
| 0.16 Abs | 1.3 fold |  |  |  |  |  | DGL160 (bispecific antibody) heavy 1: QVQLVESGGGLVQAGGSLRLSCAASGRTFSSYTMGWFRQAPGKEREFVAAISWSAGRTYYADSVKGRFTISRDNAKNTVYLQMNSLKPEDTAVYFCAAEEAPDWAPIDCSGYGCLSLYDYWGQGTQVTVSSDKGPSVFPLAPEPKSSEVQLVESGGGLVQAGGSLRLSCAASGRTFRNYHMGWFRQAPGQEREFVAAISSSGGKTSYPDSVNGRFTISRDNAKNTVYLQMNNLKVEDTAVYYCAADPRYWVAAGGSEPENVEVWGQGTLVTVSSDKTHTCPPCPAPEAAGGPSVFLFPPKPKDTLMISRTPEVTCVVVDVSHEDPEVKFNWYVDGVEVHNAKTKPREEQYNSTYRVVSVLTVLHQDWLNGKEYKCKVSNKALPAPIEKTISKAKGQPREPQVCTLPPSRDELTKNQVSLSCAVKGFYPSDIAVEWESNGQPENNYKTTPPVLDSDGSFFLVSKLTVDKSRWQQGNVFSCSVMHEALHNHYTQKSLSLSPG heavy 2: not shown |
|  |  |  |  |  | 1.3 Abs | 5.5 fold | DGL222 (bispecific antibody) heavy 1: QVQLVESGGGLVQAGGSLRLSCAASGRTFSKHAMGWFRQAPGKEREFVAAIDWSGGSTYYADSVKGRFTISRDNAKNTVYLQMDSLKPEDTAVYYCAADSYTDYAQLWLPELESEYDYWGQGTLVTVSSEKSYGPPCPPCPAPEAAGAPSVFLFPPKPKDTLMISRTPEVTCVVVDVSHEDPEVKFNWYVDGVEVHNAKTKPREEQYNSTYRVVSVLTVLHQDWLNGKEYKCKVSNKALPAPIEKTISKAKGQPREPQVCTLPPSRDELTKNQVSLSCAVKGFYPSDIAVEWESNGQPENNYKTTPPVLDSDGSFFLVSKLTVDKSRWQQGNVFSCSVMHEALHNHYTQKSLSLSPGWSHPQFEK heavy 2: not shown |
